According to US20070172423A1, “Composition and method for modulating vasculogenesis for angiogenesis” (priority 1998, published 2007):

How the values were obtained:
PDGF beta receptors = PDGF beta receptors (Homo sapiens, UniProt P09619); assay: Binding of radiolabeled truncated PDGF-C to PAE-1 cells expressing PDGF beta receptors; parameters: expressed in transfected cells; host or cells: porcine aortic endothelial (PAE-1) cells; conditions: 125I-labeled protein, on ice 90 minutes
Protocol: To assess the interactions between truncated PDGF-C and the PDGF alpha and beta receptors, truncated PDGF-C was tested for its capacity to bind to porcine aortic endothelial-1 (PAE-1) cells expressing PDGF alpha or beta receptors, respectively (Eriksson et al., EMBO J, 1992 11:543-550). The binding experiments were performed essentially as described in Heldin et al. (EMBO J, 1988 7:1387 1393). Five micrograms of truncated PDGF-C protein in ten microliters of sodium borate buffer was radiolabeled using the Bolton-Hunter reagent (Amersham) to a specific activity of 4×10^5 cpm/ng. Different concentrations of radiolabeled truncated PDGF-C, with or without added unlabeled protein, in binding buffer (PBS containing 1 mg/ml of bovine serum albumin) was added to the receptor expressing PAE-1 cells plated in 24-well culture dishes on ice for 90 minutes. After three washes with binding buffer, cell-bound ^125I-labeled PDGF-C was extracted by lysis of cells in 20 mM Tris-HCl, pH 7.5, 10% glycerol, 1% Triton X-100. The amount of cell-bound radioactivity was determined in a gamma-counter. Non-specific binding was estimated by including a 100-fold molar excess of truncated PDGF-C in some experiments. […] The binding was specific as radiolabeled PDGF-C was quantitatively displaced by a 100-fold molar excess of unlabeled protein.

aortic rings = assay: Aortic ring assay; type: cell-based
Protocol: (§1) Cell migration assays were performed on growth arrested confluent HMVEC, BAEC or hSMC cells. Cell monolayers were wounded with a rubber policeman and washed with serum-free medium. Dishes were then incubated for 20 hours in serum-free medium containing VEGF165, PDGF-AA, (R&D Systems, Minneapolis USA) or PDGF-CC. Each assay included two dishes per condition and was repeated three times independently. Cells were photographed at 40× magnification, and migration percentage corresponding to the ratio between area of the cells and the total area of the wound (Biocom visiol@b 2000 version 4.52, San Diego). For HMVEC proliferation assay, cells were seeded in 96-well plates (5 wells per condition), and incubated with VEGF, PDGF-AA, or PDGF-CC (50 ng/ml) after serum starvation. After 7 days, viable cells were counted using the cell Titer-glo luminescent cell viability assay. For NIH-3T3 and hSMC proliferation assay, cells cultured in 96-well plates were serum-starved overnight, followed by treatment with growth factors at different concentrations. Two days later, cell numbers were counted and proliferation percentage calculated, using cells cultured in medium containing 10% serum as control. Aortic ring assay was performed as described 51. Briefly, one-millimeter long aortic rings were embedded in gels of rat tail interstitial collagen and cultured at 37° C., supplemented with different growth factors (50 ng/ml). Aortic rings were analysed at day 9 of culturing. Experiments included three explants per condition and were repeated at least twice. Aortic rings were photographed at 25× magnification.
Although PDGFR-α is expressed on endothelial cells (Edelberg et al., Journal of Clinical Investigation, 1998 102:837-43; Smits et al., Growth Factors, 1989 2:1-8; Bar et al., Endocrinology, 1989 124:1841-8; Beitz et al., Proc Natl Acad Sci USA, 1991 88:2021-5; Marx et al., J Clin Invest, 1994 93:131-9; Shinbrot et al., Dev. Dyn., 1994 199:169-175), little is known about the functional consequence of PDGFR-α signaling in these cells. […] We also tested the effect of PDGF-CC on cultured aortic rings, as this assay allows assessment of the outgrowth of microvessels from an intact vessel in vitro (Blacher et al., Angiogenesis, 2001 4:133-42). Results are graphically represented as the number of microvessels and the distance over which they grew out from the aortic ring. Each experiment included three explants per condition and was repeated at least twice. At day 9 after culturing, microvessels and the distance of their outgrowth were quantified and evaluated using Student's t test. In baseline conditions, only a small number of microvessels sprouted from the aortic rings—most of them over very short distances (0.25 mm from the aortic ring)—and only a small fraction (<5%) growing out over longer distances (>0.5 mm from the aortic ring, FIG. 41a). VEGF increased not only the number of sprouting microvessels (P<0.001 at all concentrations versus control), but also the distance over which they grew out (P<0.05 at all concentrations versus control; FIG. 41b,f). At 30 ng/ml, PDGF-CC increased the number of microvessels (P<0.001 versus control, FIG. 41e,g) and increased the distance of vessel outgrowth at 5 ng/ml (P<0.01 versus control, FIG. 41g). […] A similar bell-shaped dose-response relationship has been documented for other members of the VEGF/PDGF-superfamily (Jin et al., J Mol Neurosci, 2000 14:197-203). […]

NIH-3T3 fibroblast cells = assay: NIH-3T3 proliferation assay; type: cell-based; conditions: two days, different concentrations
Protocol: as §1, with “Briefly, one-millimeter long aortic rings were embedded in gels of rat tail interstitial collagen and cultured at 37° C., supplemented with different growth factors (50 ng/ml).” left out, “Experiments included three explants per condition and were repeated at least twice. Aortic rings were photographed at 25× magnification.” left out

PDGF beta receptors, sequence (P09619 33-1106): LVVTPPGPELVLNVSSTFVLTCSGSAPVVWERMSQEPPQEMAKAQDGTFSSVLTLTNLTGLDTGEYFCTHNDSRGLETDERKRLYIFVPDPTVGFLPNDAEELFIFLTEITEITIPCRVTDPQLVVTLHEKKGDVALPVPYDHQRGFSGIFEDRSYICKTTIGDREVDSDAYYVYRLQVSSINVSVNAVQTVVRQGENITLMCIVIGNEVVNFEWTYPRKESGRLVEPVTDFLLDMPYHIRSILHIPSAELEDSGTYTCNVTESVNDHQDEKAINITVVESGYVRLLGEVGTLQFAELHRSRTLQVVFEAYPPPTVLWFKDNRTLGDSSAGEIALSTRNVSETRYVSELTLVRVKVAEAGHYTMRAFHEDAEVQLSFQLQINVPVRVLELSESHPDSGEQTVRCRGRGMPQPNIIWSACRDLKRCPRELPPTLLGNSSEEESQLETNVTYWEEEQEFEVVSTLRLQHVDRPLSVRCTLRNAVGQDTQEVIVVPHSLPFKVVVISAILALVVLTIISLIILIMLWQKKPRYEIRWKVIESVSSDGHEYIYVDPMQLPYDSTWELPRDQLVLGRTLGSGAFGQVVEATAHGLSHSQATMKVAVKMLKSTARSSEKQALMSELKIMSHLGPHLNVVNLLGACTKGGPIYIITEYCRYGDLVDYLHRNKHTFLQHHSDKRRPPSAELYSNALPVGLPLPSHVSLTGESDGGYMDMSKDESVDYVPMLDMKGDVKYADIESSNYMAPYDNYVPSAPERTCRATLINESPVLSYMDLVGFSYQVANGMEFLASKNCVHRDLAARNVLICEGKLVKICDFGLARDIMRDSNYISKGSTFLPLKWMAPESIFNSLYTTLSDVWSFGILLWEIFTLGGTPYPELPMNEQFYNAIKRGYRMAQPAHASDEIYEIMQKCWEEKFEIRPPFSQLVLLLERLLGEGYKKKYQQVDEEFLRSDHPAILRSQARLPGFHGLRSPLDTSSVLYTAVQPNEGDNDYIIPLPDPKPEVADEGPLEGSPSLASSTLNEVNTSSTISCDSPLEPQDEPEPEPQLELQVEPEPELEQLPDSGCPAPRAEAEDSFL

B1: PDGF-CC: recombinant human PDGF-CC core domain homodimer, residues 230-345 of full-length PDGF-C (SEQ ID NO:40), produced in baculovirus infected insect cells (protein)
chain: GRKSRVVDLNLLTEEVRLYSCTPRNFSVSIREELKRTDTIFWPGCLLVKRCGGNCACCLHNCNECQCVPSKVTKKYHEVLQLRPKTGVRGLHKSLTDVALEHHEECDCVCRGSTGG
modifications: homodimer; PDGF-C core domain
For B1, the “binding to beta receptor expressing cells” value (PDGF beta receptors) was “not”, the “distance of vessel outgrowth” value (aortic rings; 5 ng/ml, day 9, versus control) was “increased” and the number of microvessels (aortic rings; 30 ng/ml, day 9, versus control) was “increased”. The “concentration of maximal stimulation of perivascular fibroblast-like cells” value (aortic rings; FIG. 41 legend) was 5 to 10 ng/mL, the “concentration of maximum effect on microvessel sprouting” value (aortic rings; bell-shaped dose-response, less potent at 50 ng/ml) was 30 ng/mL and the “number and emigration of perivascular fibroblast-like cells” value (aortic rings; day 9, versus control) was “significantly increased”. The “proliferation of cultured NIH-3T3 fibroblast cells” value (NIH-3T3 fibroblast cells) was “stimulated”.
